Experiment [1] concerns the target T1, alpha-thrombin (Homo sapiens, UniProt P00734). The experiment in a line: inhibition of S-2238 hydrolysis, Morrison fit.
The target of experiment [2] is T1, alpha-thrombin. The experiment is described as follows: SPR. (Surface plasmon resonance follows binding to a sensor surface in real time, without labels.)
The target of experiment [3] is T1, alpha-thrombin. The experiment in a line: inhibition of S-2238 hydrolysis, Kiapp versus substrate concentration regression.

The results in this text go back to PMC8573170 (2021).

For KPVEAEVAQSNLDECEVEAEVAQPKLYQRGEGGNGMEPIPEDVLNEALNA [XC-42 mature peptide], the Ki in the experiment with alpha-thrombin [1] came out at 18 pM.
Take KPVEAEVAQPKLYQRGEGGNGMEPIPEDVLNEALNA [XC-43 mature peptide]: the affinity in the experiment with alpha-thrombin [2], expressed as Kd, was 3 pM. For the same molecule, the Ki is 6.1 pM with alpha-thrombin [1] and 7.7 pM with alpha-thrombin [3].
